{"source": "paper PMC4537280", "about": "“ApiAP2 Factors as Candidate Regulators of Stochastic Commitment to Merozoite Production in Theileria annulata”", "binders": {"B1": {"name": "Bio-GTGTAC (dsDNA)", "DNA 1": "AATATTATAATAGTCGTAGCCATCAATGTGTACACATGGTAATATAGATTTTCGTTTATATT", "DNA 2": "AATATAAACGAAAATCTATATTACCATGTGTACACATTGATGGCTACGACTATTATAATATT"}, "B2": {"name": "Bio-GTGTAC-MUT (dsDNA)", "DNA 1": "B1 DNA 1 with G28A, G30A, C33A, C35A", "DNA 2": "B1 DNA 2 with G28T, G30T, C33T, C35T"}, "B3": {"name": "Bio-TCTATA / C-box probe (dsDNA)", "DNA 1": "ATTGTTAATTCCCCATCCAGATCTATAAAA", "DNA 2": "TTTTATAGATCTGGATGGGGAATTAACAAT"}, "B4": {"name": "Bio(A)CACAC(A)-MUT (dsDNA)", "DNA 1": "GATATAGAATTATGCAGAATAT", "DNA 2": "ATATTCTGCATAATTCTATATC"}, "B5": {"name": "Bio-2x(A)CACAC(A) (dsDNA)", "DNA 1": "GATACACACTTATGCACACACA", "DNA 2": "TGTGTGTGCATAAGTGTGTATC"}}, "conditions_in_all_cases": "protein: recombinant; tags: N-terminal GST (pGEX5x-2); label: 5' biotin on strand 1; blunt", "key": {"[1]": {"target": "GST-TA13515D (TaAP2.g AP2 domain) (Theileria annulata (strain Ankara, …, UniProt Q4UEK3))", "assay": "EMSA; LightShift chemiluminescent EMSA kit components plus 1 ul 50% glycerol and 1 ul 1% NP40, about 0.7 ug GST fusion protein, 20 fmol biotinylated probe; competitor preincubation on ice; 4% polyacrylamide gel, 100 V, 4 C; pH and salt of binding not stated (oligo annealing in 20 mM Tris-HCl pH 7.6, 50 mM NaCl)"}, "[2]": {"target": "T1, GST-TA12015D (TaAP2.me2 AP2 domain) (Theileria annulata (strain Ankara, …, UniProt Q4UDT1))", "T1 sequence": "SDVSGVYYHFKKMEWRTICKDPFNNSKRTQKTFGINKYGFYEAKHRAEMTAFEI", "assay": "EMSA; 0.6-1.6 ug protein; LightShift chemiluminescent EMSA kit components plus 1 ul 50% glycerol and 1 ul 1% NP40, about 0.7 ug GST fusion protein, 20 fmol biotinylated probe; competitor preincubation on ice; 4% polyacrylamide gel, 100 V, 4 C; pH and salt of binding not stated (oligo annealing in 20 mM Tris-HCl pH 7.6, 50 mM NaCl)"}, "[3]": {"target": "T2, GST-TA16485D (TaAP2.me3 AP2 domain) (Theileria annulata (strain Ankara, …, UniProt Q4UIX2))", "T2 sequence": "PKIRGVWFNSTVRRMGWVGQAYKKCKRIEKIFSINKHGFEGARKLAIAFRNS", "assay": "EMSA; LightShift chemiluminescent EMSA kit components plus 1 ul 50% glycerol and 1 ul 1% NP40, about 0.7 ug GST fusion protein, 20 fmol biotinylated probe; competitor preincubation on ice; 4% polyacrylamide gel, 100 V, 4 C; pH and salt of binding not stated (oligo annealing in 20 mM Tris-HCl pH 7.6, 50 mM NaCl)"}, "[4]": {"target": "GST-TA11145D (TaAP2.me1 AP2 domain) (Theileria annulata (strain Ankara, …, UniProt Q4U8H9))", "assay": "EMSA; LightShift chemiluminescent EMSA kit components plus 1 ul 50% glycerol and 1 ul 1% NP40, about 0.7 ug GST fusion protein, 20 fmol biotinylated probe; competitor preincubation on ice; 4% polyacrylamide gel, 100 V, 4 C; pH and salt of binding not stated (oligo annealing in 20 mM Tris-HCl pH 7.6, 50 mM NaCl)"}}, "note": "Where a chain is given by its changes, count along the chain named."}
{"binder": "B1", "values": [{"measurement": "binding result", "setting": "[1]", "value": "binds"}]}
{"binder": "B2", "values": [{"measurement": "binding result", "setting": "[1]", "value": "no binding"}]}
{"binder": "B3", "values": [{"measurement": "binding result", "setting": "[2]", "value": "no binding"}, {"measurement": "binding result", "setting": "[3]", "value": "binds"}]}
{"binder": "B4", "values": [{"measurement": "binding result", "setting": "[4]", "value": "no binding"}]}
{"binder": "B5", "values": [{"measurement": "binding result", "setting": "[4]", "value": "binds"}]}
